The record followed here is patent US20240400708A1.

Numbering of substitutions follows the chain as printed. Numbers in names are those of the source.

Assay [1] addresses feline FcRn complex (FcRn-α subunit and β-microglobulin) (feline). The experiment in a line: SPR (Biacore), FcRn on SA chip, pH 6. A general note: Surface plasmon resonance follows binding to a sensor surface in real time, without labels.
Assay [2] has the same target. Nature of the assay: SPR (Biacore), FcRn on SA chip, pH 7.4.
Assay [3] has as its target feline FcRn complex (FcRn-α subunit and β-microglobulin), biotin labeled (feline). The experiment in a line: SPR, pH 6.
The target is the same in assay [4]. Nature of the assay: SPR, pH 7.4.

For the molecule “feline IgG1a mutant ID No. 357: S252Y, S434R, A431K (antibody)”, the equilibrium dissociation constant (Kd) in assay [1] stood at 0.769 nM; in assay [2], 25.9 nM.

Take “feline IgG1a mutant ID No. 366: S252Y, S434R, E430I (antibody)”: the Kd is 0.322 nM in assay [1] and 26.1 nM in assay [2].

B1: feline IgG1a S252H/S434P (antibody, part only; not given: Variable domains, not shown: another chain or arm of the molecule)
constant: ASTTAPSVFPLAPSCGTTSGATVALACLVLGYFPEPVTVSWNSGALTSGVHTFPAVLQASGLYSLSSMVTVPSSRWLSDTFTCNVAHPPSNTKVDKTVRKTDHPPGPKPCDCPKCPPPEMLGGPSIFIFPPKPKDTLHISRTPEVTCLVVDLGPDDSDVQITWFVDNTQVYTAKTSPREEQFNSTYRVVSVLPILHQDWLKGKEFKCKVNSKSLPSPIERTISKAKGQPHEPQVYVLPPAQEELSRNKVSVTCLIKSFHPPDIAVEWEITGQPEPENNYRTTPPQLDSDGTYFVYSKLSVDRSHWQRGNTYTCSVSHEALHPHHTQKSLTQSPGK
For the molecule B1, the Kd in assay [3] is 9.32 nM; in assay [4], 12.8 nM.

B2: feline IgG1a D399V (antibody, part only; not given: Variable domains, not shown: another chain or arm of the molecule)
constant: B1 constant with H138S, D287V, P322S
For B2, the Kd in assay [3] is 8.29 nM; in assay [4], 2880 nM.

B3: feline IgG1a Q311M (antibody, part only; not given: Variable domains, not shown: another chain or arm of the molecule)
constant: B1 constant with H138S, Q197M, P322S
As for B3, the Kd in assay [3] worked out at 4.97 nM; in assay [4], 5100 nM.

B4: feline IgG1a L309G (antibody, part only; not given: Variable domains, not shown: another chain or arm of the molecule)
constant: B1 constant with H138S, L195G, P322S
B4: the figures for the dissociation constant Kd in assay [3] and in assay [4] were 9.12 nM and 54.5 nM, respectively.

B5: feline IgG1a S252Y/S428M/S434F (antibody, part only; not given: Variable domains, not shown: another chain or arm of the molecule)
constant: B1 constant with H138Y, S316M, P322F
Consider B5, for which the dissociation constant (Kd) came out at 0.0207 nM in assay [3] and 9.13 nM in assay [4].

B6: feline IgG1a D399M (antibody, part only; not given: Variable domains, not shown: another chain or arm of the molecule)
constant: B1 constant with H138S, D287M, P322S
In the case of B6, the Kd was 5.33 nM in assay [3] and 46.8 nM in assay [4].

B7: feline IgG1a S252Y/S428M/S434L (antibody, part only; not given: Variable domains, not shown: another chain or arm of the molecule)
constant: B1 constant with H138Y, S316M, P322L
For the molecule B7, the Kd in assay [3] was determined as 6.91 nM; in assay [4] it was 28.9 nM.

B8: feline IgG1a D312R (antibody, part only; not given: Variable domains, not shown: another chain or arm of the molecule)
constant: B1 constant with H138S, D198R, P322S
On to B8, for which the Kd was determined as 6.91 nM in assay [3] and 25 nM in assay [4].

B9: feline IgG1a S252H/S434W (antibody, part only; not given: Variable domains, not shown: another chain or arm of the molecule)
constant: B1 constant with P322W
Take B9: the dissociation constant Kd in assay [3] is 0.469 nM; in assay [4], 31.1 nM.

B10: feline IgG1a Y404Q (antibody, part only; not given: Variable domains, not shown: another chain or arm of the molecule)
constant: B1 constant with H138S, Y292Q, P322S
Regarding B10, the Kd was 9.96 nM in assay [3] and 9940 nM in assay [4].

B11: feline IgG1a S252Y/S428M/Q311Y (antibody, part only; not given: Variable domains, not shown: another chain or arm of the molecule)
constant: B1 constant with H138Y, Q197Y, S316M, P322S
As for B11, the figures for the Kd in assay [3] and in assay [4] were 2.4 nM and 39.9 nM, respectively.

B12: feline IgG1a L309I (antibody, part only; not given: variable domains, not shown: another chain or arm of the molecule)
constant: B1 constant with H138S, L195I, P322S
As for B12, the Kd amounted to 6.81 nM in assay [3] and 4530 nM in assay [4].

B13: feline IgG1a Q311K (antibody, part only; not given: Variable domains, not shown: another chain or arm of the molecule)
constant: B1 constant with H138S, Q197K, P322S
For B13, the values for the Kd in assay [3] and in assay [4] were 4.85 nM and 1750 nM, respectively.

B14: feline IgG1a Q311I (antibody, part only; not given: Variable domains, not shown: another chain or arm of the molecule)
constant: B1 constant with H138S, Q197I, P322S
In the case of B14, the figures for the Kd in assay [3] and in assay [4] were 7 nM and 77.1 nM, respectively.

B15: feline IgG1a mutant ID No. 353: S252Y, S428M, S434F, S254V (antibody, part only; not given: Variable domains, not shown: another chain or arm of the molecule)
constant: B1 constant with H138Y, S140V, S316M, P322F
In assay [2], B15 had a Kd of 6.68 nM.

B16: feline IgG1a S434F (antibody, part only; not given: Variable domains, not shown: another chain or arm of the molecule)
constant: B1 constant with H138S, P322F
With B16, the Kd in assay [3] is 0.745 nM; in assay [4], 21 nM.

B17: feline IgG1a G402R (antibody, part only; not given: Variable domains, not shown: another chain or arm of the molecule)
constant: B1 constant with H138S, G290R, P322S
In the case of B17, the results for the dissociation constant (Kd) in assay [3] and in assay [4] were 6.1 nM and 1200 nM, respectively.

B18: feline IgG1a Q311R (antibody, part only; not given: Variable domains, not shown: another chain or arm of the molecule)
constant: B1 constant with H138S, Q197R, P322S
Regarding B18, the dissociation constant Kd came to 4.56 nM in assay [3] and 67.2 nM in assay [4].

B19: feline IgG1a mutant ID No. 323: S428Y, D312P, S434Y, D399M, D401R, T403R (antibody, part only; not given: Variable domains, not shown: another chain or arm of the molecule)
constant: B1 constant with H138S, D198P, D287M, D289R, T291R, S316Y, P322Y
Turning to B19, the dissociation constant Kd in assay [2] was 1300 nM.

B20: feline IgG1a Q311F (antibody, part only; not given: Variable domains, not shown: another chain or arm of the molecule)
constant: B1 constant with H138S, Q197F, P322S
Take B20: the figures for the Kd in assay [3] and in assay [4] were 8.85 nM and 1370 nM, respectively.

B21: feline IgG1a S252Y/S428M (antibody, part only; not given: Variable domains, not shown: another chain or arm of the molecule)
constant: B1 constant with H138Y, S316M, P322S
In the case of B21, the Kd amounted to 2.58 nM in assay [3] and 39.2 nM in assay [4].

B22: feline IgG1a mutant ID No. 350: S252Y, S428M, S434F, Q311M (antibody, part only; not given: Variable domains, not shown: another chain or arm of the molecule)
constant: B1 constant with H138Y, Q197M, S316M, P322F
Turning to B22, in assay [2], the Kd was determined as 4.89 nM.

B23: feline IgG1a S252Y/S428M/S434P (antibody, part only; not given: Variable domains, not shown: another chain or arm of the molecule)
constant: B1 constant with H138Y, S316M
Regarding B23, the Kd came to 4.86 nM in assay [3] and 44.4 nM in assay [4].

B24: feline IgG1a S252Y/S428M/D312P (antibody, part only; not given: Variable domains, not shown: another chain or arm of the molecule)
constant: B1 constant with H138Y, D198P, S316M, P322S
Regarding B24, the Kd in assay [3] was found to be 0.796 nM; in assay [4], 25.3 nM.

B25: feline IgG1a S252M/S434N (antibody, part only; not given: Variable domains, not shown: another chain or arm of the molecule)
constant: B1 constant with H138M, P322N
For the molecule B25, the results for the dissociation constant Kd in assay [3] and in assay [4] were 14.8 nM and 33.8 nM, respectively.

B26: feline IgG1a S252M/S428M/S434N/H436Y (antibody, part only; not given: Variable domains, not shown: another chain or arm of the molecule)
constant: B1 constant with H138M, S316M, P322N, H324Y
For B26, the Kd worked out at 20.5 nM in assay [3] and 28.7 nM in assay [4].

B27: feline IgG1a S252Y/S428M/Q311W (antibody, part only; not given: Variable domains, not shown: another chain or arm of the molecule)
constant: B1 constant with H138Y, Q197W, S316M, P322S
B27: the dissociation constant Kd in assay [3] stood at 0.506 nM; in assay [4], 18.8 nM.

B28: feline IgG1a S252H/S434Y (antibody, part only; not given: Variable domains, not shown: another chain or arm of the molecule)
constant: B1 constant with P322Y
With B28, the results for the Kd in assay [3] and in assay [4] were 0.14 nM and 12.5 nM, respectively.

B29: feline IgG1a S252M/S428M/S434N (antibody, part only; not given: Variable domains, not shown: another chain or arm of the molecule)
constant: B1 constant with H138M, S316M, P322N
In the case of B29, the results for the dissociation constant Kd in assay [3] and in assay [4] were 8.51 nM and 15.3 nM, respectively.

B30: feline IgG1a Q311H (antibody, part only; not given: Variable domains, not shown: another chain or arm of the molecule)
constant: B1 constant with H138S, Q197H, P322S
With B30, the dissociation constant Kd came out at 5.84 nM in assay [3] and 93.7 nM in assay [4].

B31: feline IgG1a S252M/S428M (antibody, part only; not given: Variable domains, not shown: another chain or arm of the molecule)
constant: B1 constant with H138M, S316M, P322S
Consider B31, for which the values for the Kd in assay [3] and in assay [4] were 7.27 nM and 19.5 nM, respectively.

B32: feline IgG1a S252Y/S428M/L314K (antibody, part only; not given: Variable domains, not shown: another chain or arm of the molecule)
constant: B1 constant with H138Y, L200K, S316M, P322S
As for B32, the Kd was found to be 2.13 nM in assay [3] and 25 nM in assay [4].

As a reminder, the Kd is the equilibrium constant for the complex coming apart. A high value points to a looser complex.
